Among the data in patent publication US20230357367A1 are AUC values, retold here.

Experiment in all cases: DELFIA, IgG titrated on captured biotin-peptide
Parameters in all cases: unit not given beside the values

Assay [1] concerns the target SARS-CoV-2 spike S2 peptide 1133-1147, biotinylated (SARS-CoV-2).
Assay [2] has as its target SARS-CoV-2 spike S2 peptide 1141-1155, biotinylated (SARS-CoV-2).
For assay [3], the target named is SARS-CoV-2 spike S2 peptide 1157-1171, biotinylated (SARS-CoV-2).
In assay [4] the target is SARS-CoV-2 spike S2 peptide 1145-1159, biotinylated (SARS-CoV-2).
In assay [5] the target is SARS-CoV-2 spike S2 peptide 1149-1167 (C-terminal end of the stem helix), biotinylated (SARS-CoV-2).
For assay [6], the target named is SARS-CoV-2 spike S2 peptide 1153-1167, biotinylated (SARS-CoV-2).
The target of assay [7] is SARS-CoV-2 spike S2 peptide 1143-1162 (stem helix region), biotinylated (SARS-CoV-2).
Assay [8] deals with SARS-CoV-2 spike S2 peptide 1149-1163, biotinylated (SARS-CoV-2).
The target in assay [9] is SARS-CoV-2 spike S2 peptide 1137-1151, biotinylated (SARS-CoV-2).

B1: AB-1 (antibody, V domains shown)
VH: EVQLVESGAEVKKPGESLKISCKGSGYTFTRYWIGWVRQMPGKGLEWMGIIYPGDSDVRYSPSFQGHVTISADKSISTAYLQWNSLKASDTAMYYCARLPQYCSKGVCYRWFDPWGQGTLVTVSS
VL: EIVLTQSPSSVSASVGDRVTITCRASQGISSWLAWYQQKPGKAPKLLIYAASSLQSGVPSRFSGSGSGTDFTLTISSLQPEDFATYYCQQGHSFPYTFGQGTNLEIK
Turning to B1, the AUC in assay [1] was 27100; in assay [2], 18000; in assay [3] it was 30000; in [4], 1.7e+06; in assay [5] it was 3.27e+06; in [6], 3.32e+06. In addition, the AUC in assay [7] was 3.52e+06; in [8], 3.52e+06; in assay [9], 21500.
